Reference: patent US20220177596A1 (Bristol-Myers Squibb, published 2022)
Where two headings read alike, the source gives them in different places.

T1: hCD32b-His (human, UniProt P31994 43-217)
T1 construct: Generated in house; captured on anti-His Fab; also called FcgRIIb
T1 sequence: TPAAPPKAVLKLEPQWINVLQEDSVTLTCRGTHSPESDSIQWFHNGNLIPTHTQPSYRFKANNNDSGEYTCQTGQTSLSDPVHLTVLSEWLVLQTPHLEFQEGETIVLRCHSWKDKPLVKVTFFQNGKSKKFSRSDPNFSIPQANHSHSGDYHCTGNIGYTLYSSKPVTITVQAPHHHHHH

B1: Y1238-P238K (antibody, human IgG1, kappa)
heavy: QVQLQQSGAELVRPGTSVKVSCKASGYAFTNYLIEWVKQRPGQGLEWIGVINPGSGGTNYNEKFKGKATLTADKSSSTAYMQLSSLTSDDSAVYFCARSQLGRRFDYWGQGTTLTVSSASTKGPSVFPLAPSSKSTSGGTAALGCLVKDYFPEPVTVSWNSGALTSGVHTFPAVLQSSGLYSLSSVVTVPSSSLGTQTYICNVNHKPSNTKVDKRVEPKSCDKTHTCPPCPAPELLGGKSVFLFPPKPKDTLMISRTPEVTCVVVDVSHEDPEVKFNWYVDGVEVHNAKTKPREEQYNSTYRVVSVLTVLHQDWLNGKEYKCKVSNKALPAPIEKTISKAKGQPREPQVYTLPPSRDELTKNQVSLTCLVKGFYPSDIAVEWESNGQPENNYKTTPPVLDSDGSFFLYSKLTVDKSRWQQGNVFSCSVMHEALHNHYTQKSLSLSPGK
light: DIVMTQSHKFMSTSVGDRVSITCKASQDVRTGVAWYQQKPGQSPKLLIYSASYRNTGVPDRFTGSRSGTDFTFTISSVQAEDLAVYYCQQHYSPPYTFGGGTKLEIKRTVAAPSVFIFPPSDEQLKSGTASVVCLLNNFYPREAKVQWKVDNALQSGNSQESVTEQDSKDSTYSLSSTLTLSKADYEKHKVYACEVTHQGLSSPVTKSFNRGEC
notes: Chimeric; also called chimeric Y1238-P238K
B2: Y1238-N297A (antibody, human IgG1, kappa, N297A)
heavy: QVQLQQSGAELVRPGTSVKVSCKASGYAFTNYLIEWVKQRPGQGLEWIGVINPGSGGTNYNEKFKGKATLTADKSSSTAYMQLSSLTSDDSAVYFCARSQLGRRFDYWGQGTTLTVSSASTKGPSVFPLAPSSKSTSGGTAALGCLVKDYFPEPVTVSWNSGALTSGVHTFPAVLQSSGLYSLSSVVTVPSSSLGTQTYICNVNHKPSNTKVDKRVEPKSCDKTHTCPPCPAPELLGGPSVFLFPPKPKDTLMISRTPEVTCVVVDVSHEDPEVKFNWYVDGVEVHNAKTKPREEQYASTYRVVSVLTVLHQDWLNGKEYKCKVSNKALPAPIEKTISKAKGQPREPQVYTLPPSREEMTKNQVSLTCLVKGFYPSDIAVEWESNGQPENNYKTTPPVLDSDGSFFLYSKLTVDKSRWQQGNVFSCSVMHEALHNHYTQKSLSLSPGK
light: B1 light
notes: Chimeric; also called chimeric Y1238-N297A
B3: Y1238-CTza (antibody, human IgG1, kappa)
heavy: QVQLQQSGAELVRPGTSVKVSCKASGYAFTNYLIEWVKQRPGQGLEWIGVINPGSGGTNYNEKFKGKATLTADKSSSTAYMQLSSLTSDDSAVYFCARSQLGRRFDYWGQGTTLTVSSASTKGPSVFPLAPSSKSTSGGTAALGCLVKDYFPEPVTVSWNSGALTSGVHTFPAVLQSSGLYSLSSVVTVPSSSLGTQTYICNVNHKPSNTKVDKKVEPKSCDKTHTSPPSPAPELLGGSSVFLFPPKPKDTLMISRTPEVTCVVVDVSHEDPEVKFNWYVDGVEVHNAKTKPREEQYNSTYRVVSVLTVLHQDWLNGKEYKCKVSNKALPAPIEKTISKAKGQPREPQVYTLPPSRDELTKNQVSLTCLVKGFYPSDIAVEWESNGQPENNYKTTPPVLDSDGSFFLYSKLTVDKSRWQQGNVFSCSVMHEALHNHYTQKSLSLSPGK
light: B1 light
notes: Chimeric; also called chimeric Y1238 CTza
B4: 5F11-45-P238K (antibody, human IgG1, kappa)
heavy: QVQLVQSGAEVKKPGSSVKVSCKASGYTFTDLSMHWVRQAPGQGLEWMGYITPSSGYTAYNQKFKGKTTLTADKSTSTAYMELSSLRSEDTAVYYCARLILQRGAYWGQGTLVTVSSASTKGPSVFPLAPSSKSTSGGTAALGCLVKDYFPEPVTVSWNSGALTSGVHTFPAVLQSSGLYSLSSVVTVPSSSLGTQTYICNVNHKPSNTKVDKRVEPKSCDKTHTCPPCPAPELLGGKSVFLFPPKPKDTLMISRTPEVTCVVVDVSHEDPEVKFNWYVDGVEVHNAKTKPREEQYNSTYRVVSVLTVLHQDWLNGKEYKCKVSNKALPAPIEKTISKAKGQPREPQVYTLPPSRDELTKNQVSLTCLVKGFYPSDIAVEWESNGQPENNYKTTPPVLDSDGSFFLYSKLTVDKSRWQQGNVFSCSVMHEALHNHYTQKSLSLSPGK
light: DIVLTQSPDSLAVSLGERATINCRASKNVDSYGNSFMHWYQQKPGQPPKLLIYRASNLESGVPDRFSGSGSGTDFTLTISSLQAEDVAVYYCQQSNEDPLTFGQGTKLEIKRTVAAPSVFIFPPSDEQLKSGTASVVCLLNNFYPREAKVQWKVDNALQSGNSQESVTEQDSKDSTYSLSSTLTLSKADYEKHKVYACEVTHQGLSSPVTKSFNRGEC
B5: 5F11-45-V11 (antibody, human IgG1, kappa)
heavy: QVQLVQSGAEVKKPGSSVKVSCKASGYTFTDLSMHWVRQAPGQGLEWMGYITPSSGYTAYNQKFKGKTTLTADKSTSTAYMELSSLRSEDTAVYYCARLILQRGAYWGQGTLVTVSSASTKGPSVFPLAPSSKSTSGGTAALGCLVKDYFPEPVTVSWNSGALTSGVHTFPAVLQSSGLYSLSSVVTVPSSSLGTQTYICNVNHKPSNTKVDKRVEPKSCDKTHTCPPCPAPELLGDDSVFLFPPKPKDTLMISRTPEVTCVVVDVSDEDGEVKFNWYVDGVEVHNAKTKPREEQYNSTYRVVSVLTVLHQDWLNGKEYKCKVSNKALPRPIEKTISKAKGQPREPQVYTLPPSREEMTKNQVSLTCLVKGFYPSDIAVEWESNGQPENNYKTTPPVLDSDGSFFLYSKLTVDKSRWQQGNVFSCSVMHEALHNHYTQKSLSLSPGK
light: B4 light
notes: Control with enhanced selectivity for hCD32b

Tests used:
[1] = molecular target: T2, human-CD40 monomer (human, UniProt P25942 21-193, limits assumed); experiment: SPR, Ab captured on protein A, CD40 monomer analyte
T2 construct: also called hCD40-monomer; human-CD40-monomer protein
Description: These chimeric antibodies were tested for CD40 and FcgR binding by SPR, as well as for iDC activation.

[2] = molecular target: human CD40 on primary human cells (tonsillar B cells, immature dendritic cells) (human, UniProt P25942 21-277); experiment: cell-based or functional assay
[3] = molecular target: T3, hCD64-His (human, UniProt P12314 16-288, limits assumed); experiment: SPR
T3 construct: Generated in house; captured on anti-His Fab; also called hFcgRI; FcgRI
Description: (§1) FCGR BINDING SPR: FcgR binding can be measured in vitro using purified FcgRs using methods such as BIAcore™ surface plasmon resonance (SPR). One method tests the binding of purified antibodies to His-tagged FcgR proteins (FcgR-His) which are captured on the immobilized Fab fragment of an anti-His antibody. These experiments are performed on either a BIAcore™ T100 or BIAcore™ T200 instrument (GE Healthcare Life Sciences, Marlborough, Mass.) at 25° C. The Fab fragment from a murine anti-6×His antibody (generated in house) is immobilized on a CMS sensor chip using standard ethyl(dimethylaminopropyl) carbodiimide (EDC)/N-hydroxysuccinimide (NHS) chemistry with ethanolamine blocking, to a density of ˜3000 RU in a running buffer of 10 mM HEPES pH 7.4, 150 mM NaCl, 3 mM EDTA, 0.05% surfactant p20 (HBS-EP+). All remaining studies are performed using a running buffer of 10 mM NaPO4, 130 mM NaCl, 0.05% p20 (PBS-T) pH 7.1. Various FcγR proteins containing a C-terminal 6× poly-histidine tag (generated in house) are captured on this surface (typically using FcgR-his protein concentration of ˜7 μg/ml) using a contact time of 30 sec at 10 μl/min. Various concentrations of purified antibody are tested for binding, for example using an association time of 120 seconds at 30 μl/min, and a dissociation time of 120 seconds at 30 μl/min. FcgR proteins tested in these studies include the “high affinity” FcgR CD64 (hFcgRI), as well as the “low affinity” FcgRs CD32a-H131 (FcgRIIa-H131), CD32a-R131 (FcgRIIa-R131), CD32b (FcgRIIb), CD16a-V158 (FcgRIIIa-V158), and CD16b-NA2 (FcgRIIIb-NA2).

[4] = molecular target: T3, hCD64-His; experiment: SPR (BIAcore): 7 µg/ml hCD64-His captured on an anti-His Fab surface, 1 µM antibody as analyte
Description: as §1

[5] = molecular target: T2, human-CD40 monomer; experiment: SPR, Ab captured on protein A, CD40 monomer analyte; remark: listed apart in the source
[6] = molecular target: T1, hCD32b-His; experiment: SPR
Description: as §1

T2 sequence (P25942 21-193 limits assumed): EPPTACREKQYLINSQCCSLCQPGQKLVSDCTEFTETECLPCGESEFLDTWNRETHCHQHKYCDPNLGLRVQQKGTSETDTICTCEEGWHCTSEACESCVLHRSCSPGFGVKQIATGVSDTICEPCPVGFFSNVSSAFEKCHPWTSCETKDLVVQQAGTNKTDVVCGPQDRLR
human CD40 on primary human cells (tonsillar B cells, immature dendritic cells), sequence (P25942 21-277 limits assumed): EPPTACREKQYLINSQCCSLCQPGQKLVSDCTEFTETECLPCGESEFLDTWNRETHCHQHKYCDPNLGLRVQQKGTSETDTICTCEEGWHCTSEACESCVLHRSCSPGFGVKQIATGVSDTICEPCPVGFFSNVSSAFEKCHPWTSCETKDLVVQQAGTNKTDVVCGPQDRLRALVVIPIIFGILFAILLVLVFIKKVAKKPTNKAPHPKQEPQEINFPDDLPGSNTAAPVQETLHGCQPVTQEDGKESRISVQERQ
T3 sequence (P12314 other isoform, or with tags, fused parts or gaps limits assumed): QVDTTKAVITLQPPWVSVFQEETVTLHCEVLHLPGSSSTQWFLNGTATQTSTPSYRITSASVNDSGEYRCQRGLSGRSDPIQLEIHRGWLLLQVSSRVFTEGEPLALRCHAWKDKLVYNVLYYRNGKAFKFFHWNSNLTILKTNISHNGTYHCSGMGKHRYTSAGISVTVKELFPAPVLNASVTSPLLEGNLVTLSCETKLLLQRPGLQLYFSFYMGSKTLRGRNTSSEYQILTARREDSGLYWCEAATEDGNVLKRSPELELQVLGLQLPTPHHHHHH

Binder	Kd [1]	koff [1]	kon [1]	IC50 for inhibition of proliferation of B cells, CD40L Trimer [2]	IC50 for inhibition of proliferation of B cells, CHO CD40L [2]	binding result [3]	binding result [4]	Kd [5]	koff [5]	kon [5]	binding result [6]
B1	2.6 nM	0.00026 s⁻¹	97000 M⁻¹ s⁻¹	3.4 ng/mL	18.4 ng/mL	binds	–	–	–	–	–
B2	2.5 nM	0.00024 s⁻¹	97000 M⁻¹ s⁻¹	3.6 ng/mL	17 ng/mL	binds	–	–	–	–	–
B3	2.3 nM	0.00023 s⁻¹	100000 M⁻¹ s⁻¹	–	–	binds	–	–	–	–	–
B4	–	–	–	10 ng/mL	–	–	binds	3.3 nM	0.00027 s⁻¹	79000 M⁻¹ s⁻¹	–
B5	–	–	–	–	–	–	–	3.9 nM	0.0003 s⁻¹	79000 M⁻¹ s⁻¹	binds
